Where a chain is given by its changes, count along the chain named. Numbers in names are those of the source.
B1: ApeLiP (LiP of Agrocybe pediades) (Agrocybe pediades) (protein)
chain: AVTCPTGQTTANEACCVLFPVIDLLQEELFDGGECGEEAHAALRLAFHDAIGFSKNGGKGGGADGSILAFHQTETTYAANSGIEDIITAQLPIFQKTNLTAGDFVHLAAAIGTGNCPGSPQLAYSFGRPPPVAPAPDGTVPEPTDSVTDILARFSEAGFVTAEVIWLLASHSIAAASKIDTSAPRTPFDSTPALFDTQFYLETILNGTLLPGDGGAHTGEVLSPIAGEMRLQSDFAFAQDPRTACLWQEPINDQAFIQGKFFAAMKKLQVLGQTGLTDCSDVIPVPASLPGPITFPAGFSEADVISACTATPLPSLATIAGPKPTIPPVPL
B2: ApeLiP (LiP of Agrocybe pediades) (Agrocybe pediades; W166A) (protein)
chain: B1 chain with W166A

What was measured:
Test in all cases: purified protein
Assay type in all cases: biochemical, Agrocybe pediades
purified protein [1] = substrate: CCn1c(=NN=c2sc3cc(S(=O)(=O)O)ccc3n2CC)sc2cc(S(=O)(=O)O)ccc21
purified protein [2] = substrate: Nc1c(N=Nc2ccc(S(=O)(=O)CCOS(=O)(=O)O)cc2)c(S(=O)(=O)O)cc2cc(S(=O)(=O)O)c(N=Nc3ccc(S(=O)(=O)CCOS(=O)(=O)O)cc3)c(O)c12; conditions: Hill n = 2.11 ± 0.30, pH 3.0, 25 °C, 0.4 mM H2O2
purified protein [3] = substrate: COc1ccc(CO)cc1OC; conditions: pH 4.0, 25 °C, 0.4 mM H2O2, fit with substrate inhibition
purified protein [4] = substrate: COc1cccc(OC)c1O
[5] = high-efficiency site of biphasic kinetics, Hill n = 1.62 ± 0.12, 100 mM sodium tartrate pH 3.0, 25 °C, 0.4 mM H2O2
[6] = pH 3.0, 25 °C, 0.4 mM H2O2, fit with substrate inhibition
[7] = low-efficiency site (only site left), Hill n = 1.62 ± 0.28, strong substrate inhibition, pH 3.0, 25 °C, 1 mM H2O2
[8] = pH 8.0, 25 °C, 1 mM H2O2, Michaelis-Menten fit despite substrate/product inhibition, no activity at pH 3

| Protein | K0.5 (purified protein [1]; [5]) [µM] | kcat (purified protein [1]; [5]) [s⁻¹] | kcat/Km (purified protein [1]; [5]) [s⁻¹ mM⁻¹] | K0.5 (purified protein [2]) [µM] | kcat (purified protein [2]) [s⁻¹] | kcat/Km (purified protein [2]) [M⁻¹ s⁻¹] | Km (purified protein [3]) | kcat (purified protein [3]) [s⁻¹] | kcat/Km (purified protein [3]) [M⁻¹ s⁻¹] | Km (purified protein [4]; [6]) [µM] | kcat (purified protein [4]; [6]) [s⁻¹] | kcat/Km (purified protein [4]; [6]) [M⁻¹ s⁻¹] | K0.5 (purified protein [1]; [7]) [µM] | kcat (purified protein [1]; [7]) | kcat/Km (purified protein [1]; [7]) | Km (purified protein [4]; [8]) [µM] | kcat (purified protein [4]; [8]) [s⁻¹] | kcat/Km (purified protein [4]; [8]) [M⁻¹ s⁻¹] |
| --- | --- | --- | --- | --- | --- | --- | --- | --- | --- | --- | --- | --- | --- | --- | --- | --- | --- | --- |
| B1 | 8.1 ± 0.6 | 42 ± 1.8 | 5130 ± 460 | 14 ± 1.4 | 21 ± 1.5 | 1.54e+06 ± 115000 | (29.6 ± 4.6) × 10^3 µM | 4.3 ± 0.3 | 150 ± 30 | 37 ± 5.6 | 68.6 ± 2.8 | 1.91e+06 ± 310000 |  |  |  |  |  |  |
| B2 |  |  |  |  |  |  |  |  |  |  |  |  | 1150 ± 190 | 117 ± 10 ^c s^-1 | 102 ± 19 ^c s^-1·mM^-1 | 49 ± 8.2 | 6.1 ± 0.27 | 125000 ± 22000 |

— paper PMC8472802, “Agaricales Mushroom Lignin Peroxidase: From Structure–Function to Degradative Capabilities” (Antioxidants, 2021)
